# Reference: patent US20200024370A1
# Molecular target: NpuN (cysteine-free, C.F.), N-terminal Npu DnaE intein segment with His tag and three C-terminal cysteines, coupled to SulfoLink resin (Nostoc punctiforme)
# Assay: cell-based or functional assay
substance,measurement,value
"NpuC^HN-SK^C, C-terminal intein segment with serine to histidine mutation fused to streptokinase with cysteine as +1 residue (from UniProt P00779 27-440)","cleaving percentage (C-terminal cleavage, SDS-PAGE), in solution, room temperature, pH 8.5, 1 hour",> 50%
